T1: human Claudin 18.2-VLP (human, UniProt P56856-2 1-261)
T1 construct: also called CLDN18.2
T1 sequence (looked up): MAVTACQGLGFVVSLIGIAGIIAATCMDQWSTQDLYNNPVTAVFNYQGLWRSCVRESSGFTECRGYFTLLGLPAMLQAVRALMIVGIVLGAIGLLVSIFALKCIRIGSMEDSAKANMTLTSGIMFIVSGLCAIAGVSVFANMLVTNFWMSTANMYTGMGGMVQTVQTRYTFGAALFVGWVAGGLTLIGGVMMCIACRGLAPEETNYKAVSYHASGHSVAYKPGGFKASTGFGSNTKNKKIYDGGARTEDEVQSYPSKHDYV

B1: CLDN18.2-L010: Claudin 18.2 sdAb (SEQ ID NO. 1) conjugated with functional linker L010 (conjugate)
VHH: EVQLVESGGGLVQPGGSLRLSCAASGSFFRIVAMGWYRQAPGSQRELVATITRGGSTYYADSVKGRFTISRDNAKNTLYLQMNSLRAEDTAVYYCNVRVEVPFMQPNDYWGQGTLVTVSS
modifications: functional linker L010 conjugated
B2: CLDN18.2-L009: Claudin 18.2 sdAb (SEQ ID NO. 1) conjugated with functional linker L009 (conjugate)
VHH: B1 VHH
modifications: functional linker L009 conjugated
B3: CLDN18.2-L006: Claudin 18.2 sdAb (SEQ ID NO. 1) conjugated with functional linker L006 (conjugate)
VHH: B1 VHH
modifications: functional linker L006 conjugated
B4: CLDN18.2-L007: Claudin 18.2 sdAb (SEQ ID NO. 1) conjugated with functional linker L007 (conjugate)
VHH: B1 VHH
modifications: functional linker L007 conjugated
B5: CLDN18.2-L005: Claudin 18.2 sdAb (SEQ ID NO. 1) conjugated with functional linker L005 (conjugate)
VHH: B1 VHH
modifications: functional linker L005 conjugated
B6: CLDN18.2-L011: Claudin 18.2 sdAb (SEQ ID NO. 1) conjugated with functional linker L011 (conjugate)
VHH: B1 VHH
modifications: functional linker L011 conjugated
B7: CLDN18.2-L012: Claudin 18.2 sdAb (SEQ ID NO. 1) conjugated with functional linker L012 (conjugate)
VHH: B1 VHH
modifications: functional linker L012 conjugated
B8: CLDN18.2-DOTAGA: Claudin 18.2 sdAb (SEQ ID NO. 1) conjugated with DOTAGA, used as control for chelating imaging radioisotope (conjugate)
VHH: B1 VHH
modifications: DOTAGA chelator conjugated
B9: CLDN18.2-L003: Claudin 18.2 sdAb (SEQ ID NO. 1) conjugated with functional linker L003 (conjugate)
VHH: B1 VHH
modifications: functional linker L003 conjugated
B10: CLDN18.2-L008: Claudin 18.2 sdAb (SEQ ID NO. 1) conjugated with functional linker L008 (conjugate)
VHH: B1 VHH
modifications: functional linker L008 conjugated
B11: FAP-DOTAGA: FAP sdAb (SEQ ID NO. 5) conjugated with DOTAGA, used as control for chelating imaging radioisotope (conjugate)
VHH: QVQLLESGGGLVQPGGSLRLSCAASGFGFGNSLMSWVRRAPGKGLEWVSTIYPRGSFTDYADSVKGRFTISRDNSRNTLYLQMNSLRAEDTAVYYCATGWGRSSDYDPPGQGTLVTVSS
modifications: DOTAGA chelator conjugated
B12: FAP-L007: FAP sdAb (SEQ ID NO. 5) conjugated with functional linker L007 (conjugate)
VHH: B11 VHH
modifications: functional linker L007 conjugated
B13: CLDN18.2-DOTAGA (VHH)
VHH: B1 VHH
modifications: DOTAGA chelator conjugated to the sdAb, residue not stated; DOL 1.23
notes: also called CLDN18.2 sdAb conjugated with DOTAGA
B14: CLDN18.2-L004 (VHH)
VHH: B1 VHH
modifications: functional linker L004 conjugated to the sdAb, residue not stated; DOL 1.37
notes: also called CLDN18.2 sdAb-linker L004 conjugate
B15: CLDN18.2-L002 (VHH)
VHH: B1 VHH
modifications: functional linker L002 conjugated to the sdAb, residue not stated; DOL 1.18
notes: also called CLDN18.2 sdAb-linker L002 conjugate
B16: CLDN18.2-L001 (VHH)
VHH: B1 VHH
modifications: functional linker L001 conjugated to the sdAb, residue not stated; DOL 1.13
notes: also called CLDN18.2 sdAb-linker L001 conjugate

Test system in one data set: not listed separately
In words: Pharmacokinetic study of CLDN18.2-linker conjugates (serum ELISA, NCA). The note with it: BALB/c mice, intravenous, about 1 mg/kg, serum, over 48 hours. Format: in vivo, BALB/c mice. The procedure: The in vivo pharmacokinetic profile of the CLDN18.2-linker conjugates was analyzed. Briefly, BALB/c mice were administered with the conjugates by intravenous injection at a dose of about 1 mg/kg. Then, whole blood of the animal was collected at different time points over 48 hours.
The whole blood was collected into a tube without anticoagulation and maintained at room temperature for more than 30 minutes, followed by centrifuge at approximately 5000 rpm at 4° C. for 5 minutes to obtain serum. Concentration of the conjugates in serum was then measured by ELISA using HRP-labeled goat anti-alpaca IgG VHH domain secondary antibody. The data was further analyzed using PK Solver software, and the […] (NCA) was used to evaluate the pharmacokinetic parameters, as shown in Table 7 and FIG. 2.
B1 showed an AUCall of 14500 ± 149 ng·h/mL, a Cl of 1.02 ± 0.033 mL/min/kg, a T1/2 of 175 ± 7.02 min and a Vd of 0.199 ± 0.012 L/kg.
In the same order, the values of B2 are 148000 ± 5140 ng·h/mL, 0.083 ± 0 mL/min/kg, 1490 ± 323 min and 0.166 ± 0.023 L/kg.
For the molecule B3, the AUCall is 650 ± 69 ng·h/mL, the Cl was found to be 22.7 ± 2.2 mL/min/kg, the T1/2 stood at 13.5 ± 0.36 min and the Vd is reported as 0.408 ± 0.026 L/kg.
The corresponding values for B4 are 33100 ± 4920 ng·h/mL, 0.45 ± 0.05 mL/min/kg, 361 ± 73.8 min and 0.183 ± 0.014 L/kg.
The corresponding values for B5 are 881 ± 118 ng·h/mL, 17.8 ± 2 mL/min/kg, 13.4 ± 1.56 min and 0.284 ± 0.017 L/kg.
In turn, B6 gave an AUCall of 15700 ± 816 ng·h/mL, a Cl of 0.95 ± 0.017 mL/min/kg, a T1/2 of 90 ± 10.1 min and a Vd of 0.106 ± 0.008 L/kg.
In the same order, the values of B7 are 2220 ± 223 ng·h/mL, 7.02 ± 0.7 mL/min/kg, 17.3 ± 1.14 min and 0.151 ± 0.025 L/kg.
The corresponding values for B8 are 1450 ± 149 ng·h/mL, 10.2 ± 1.2 mL/min/kg, 32.9 ± 2.52 min and 0.245 ± 0.032 L/kg.
The corresponding values for B9 are 460 ± 77 ng·h/mL, 30.2 ± 4.1 mL/min/kg, 11.2 ± 1.56 min and 0.431 ± 0.006 L/kg.
With B10, the AUCall is 1880 ± 177 ng·h/mL, the Cl was 7.32 ± 0.367 mL/min/kg, the T1/2 amounted to 38.2 ± 4.02 min and the Vd is 0.375 ± 0.043 L/kg.

Still in this data set, the particulars now being: FIG. 2; CLDN18.2 conjugate of the named linker compared to the control group.
As to `Cc1ccc(CCCC(=O)NCCCCC(NC(=O)CNC(=O)CCC(C(=O)O)N2CCN(CC(=O)O)CCN(CC(=O)O)CCN(CC(=O)O)CC2)C(=O)NCc2ccc(N=C=S)cc2)cc1` (stereo not drawn) [L010], the “blood circulation of the CLDN18.2 conjugates” value is “significantly prolonged blood circulation”.
Regarding `CCCCCCCCCCCCC(=O)NCCCCC(NC(=O)CNC(=O)CCC(C(=O)O)N1CCN(CC(=O)O)CCN(CC(=O)O)CCN(CC(=O)O)CC1)C(=O)NCc1ccc(N=C=S)cc1` (stereo not drawn) [L011], the “blood circulation of the CLDN18.2 conjugates” value is “significantly prolonged blood circulation”.

Test system in the next data set: not listed separately
In words: Pharmacokinetic study of FAP-linker conjugates (serum ELISA, NCA). Format: in vivo, BALB/c mice. The following applies: BALB/c mice, intravenous, about 1 mg/kg, serum, over 48 hours. The method, then:
he in vivo pharmacokinetic profile of the FAP-linker conjugates was analyzed. Briefly, BALB/c mice were administered with the conjugates by intravenous injection at a dose of about 1 mg/kg. Then, whole blood of the animal was collected at different time periods over 48 hours.
The whole blood was collected into a tube without anticoagulation and maintained at room temperature for more than 30 minutes, followed by centrifugated at approximately 5000 rpm at 4° C. for 5 minutes to obtain serum. Concentration of the conjugates in serum was then measured by ELISA using HRP-labeled goat anti-alpaca IgG VHH domain secondary antibody. The data was further analyzed using PK Solver software, and the […] (NCA) was used to evaluate the pharmacokinetic parameters, as shown in Table 8 and FIG. 3.
The molecule B11 had an AUCall of 1560 ± 88 ng·h/mL, a Cl of 10.7 ± 0.633 mL/min/kg, a T1/2 of 29.2 ± 0.12 min and a Vd of 0.315 ± 0.020 L/kg.
B12 had an AUCall of 45700 ± 3230 ng·h/mL, a Cl of 0.367 ± 0.033 mL/min/kg, a T1/2 of 486 ± 6.84 min and a Vd of 0.206 ± 0.017 L/kg.

In the next data set the target is T1, human Claudin 18.2-VLP. In words: ELISA, plate coated with human Claudin 18.2-VLP, HRP anti-sdAb detection.
Settings: not given
The procedure: Binding affinities of the prepared conjugates with tumor antigen was evaluated by ELISA. […] On the next day, the plate was washed by 0.05% PBST and blocked by 10% StartingBlock buffer (Thermo, #37538) at room temperature for 1 hr. Then, 100 μL of serial diluted conjugate samples in 1% StartingBlock buffer was added to the plate. The plate was further incubated at room temperature for 2 hrs under shaking at 100 rpm and washed by 0.05% PBST. Then 100 μL 0.4 μg/mL HRP-conjugated anti-sdAb secondary antibody (Jackson, #128-035-232) was added and subject to 1 hr incubation at room temperature under shaking at 100 rpm. The plate was then washed by 0.05% PBST and developed using TMB solution (KPL, #5120-00820).
In turn, B13 displayed an EC50 of 0.84 nM.
B14 gave an EC50 of 3.47 nM.
On the same count and under the same terms, the value for B15 was 2.18 nM; that for B16 was 1.75 nM.

The values are drawn from US20260216366A1, “CONJUGATE AND USES THEREOF” (Full-Life Technologies UK Limited, priority 2022, published 2026).
